Results reported in patent US20210146029A1.

Molecular target: sTNF-R1 (soluble Tumor Necrosis Factor Receptor 1), spiked into buffer or human plasma (UniProt P19438)
Test: column run with spiked human plasma (9.74 ng/mL sTNF-R1), pre- against post-column concentration at each time point

Sequence of UniProt P19438 (P19438 30-211 limits assumed): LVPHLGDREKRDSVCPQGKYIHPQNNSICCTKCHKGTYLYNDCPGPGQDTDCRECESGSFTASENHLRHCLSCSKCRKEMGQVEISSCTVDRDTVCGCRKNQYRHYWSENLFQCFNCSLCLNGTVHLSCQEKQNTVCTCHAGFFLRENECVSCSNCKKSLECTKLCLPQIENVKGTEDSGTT

**Q.** With “recombinant single chain TNFα ligand (sc-TNFα ligand, comprising 3 TNFα monomers), covalently linked to agarose beads” as the substance, how does the binding efficiency read?
**A.** > 95%
